# Data reported in publication PMC7090148 (2020).
# Target: NTAP-tagged TRAPPC8
# Assay: co-IP (IP: anti-Myc, immunoblot)
# Conditions: 0.5% input, parent: 1
row,ratio to parent,Substance
1,1,"Mouse OFD1, wild type (from UniProt Q80Z25) G139S"
2,1.02,"Mouse OFD1, wild type (from UniProt Q80Z25) S437R"
3,1.04,"Mouse OFD1, wild type (from UniProt Q80Z25) A80T"
4,0.7,"Mouse OFD1, wild type (from UniProt Q80Z25) S75F"
